Experimental data: publication PMC10075959

Target: FL-N nucleocapsid protein (SARS-CoV-2, UniProt P0DTC9 1-419)
Assay: sedimentation velocity AUC
Conditions: protein: commercial; chain copies: 2; single strand

TTTTTTTTTT (ssDNA) [T10]
binding result: binds
